Article PMC8170832

Target: endogenous HSF1 (heat shock factor 1), mouse embryonic fibroblasts (mouse (endogenous in MEFs)) (UniProt P38532)
Assay: co-IP

Chain of UniProt P38532 (P38532 whole entry): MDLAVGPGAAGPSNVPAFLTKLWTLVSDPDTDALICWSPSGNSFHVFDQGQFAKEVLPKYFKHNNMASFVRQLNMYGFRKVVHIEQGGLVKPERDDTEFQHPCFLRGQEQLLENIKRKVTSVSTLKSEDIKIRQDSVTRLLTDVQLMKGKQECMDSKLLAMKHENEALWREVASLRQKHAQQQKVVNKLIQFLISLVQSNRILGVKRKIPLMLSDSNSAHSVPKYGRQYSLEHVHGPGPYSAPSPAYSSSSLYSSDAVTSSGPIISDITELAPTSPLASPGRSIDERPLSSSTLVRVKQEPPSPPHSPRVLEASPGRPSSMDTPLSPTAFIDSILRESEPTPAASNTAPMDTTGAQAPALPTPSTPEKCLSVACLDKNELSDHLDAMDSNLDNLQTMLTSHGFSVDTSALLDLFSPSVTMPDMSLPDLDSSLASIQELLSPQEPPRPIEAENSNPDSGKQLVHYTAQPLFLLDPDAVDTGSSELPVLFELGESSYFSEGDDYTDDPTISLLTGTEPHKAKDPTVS

| percent of phospho-AMPKα depleted by IP of HSF1 | percent of total cellular AMPKα depleted by IP of HSF1 | Substance |
| --- | --- | --- |
| 25% |  | endogenous phospho-AMPKα (Thr172), mouse embryonic fibroblasts (from UniProt Q5EG47 1-559; Q9R078 1-270; Q91WG5 1-566) (complex) |
|  | 66% | endogenous AMPK (AMP-activated protein kinase), mouse embryonic fibroblasts (from UniProt Q5EG47 1-559; Q9R078 1-270; Q91WG5 1-566) (complex) |
